Assay results taken from the RNAGym collection of RNA variant scans (doi:10.7554/elife.90254).

B1: OR4K15 (parent)
chain: GUUAACGGUCAUAGGCCAUGGAAACUAGGAGCACCAUUUCGCUGCCAGUGAAGAAAUGAACAAAGAAAAUCUGGGCCAGGCAGGCAUCAAAAGAAAUAGUCUUGCGCUCAACCAGAAAGUCUGUAAUCAUUUUAAGGGUA

Variants of: B1
Test: self-cleavage, relative activity (ratio to wild type); higher = more cleavage; in vitro, sequencing; the parent is a self-cleaving ribozyme

Q: Which self-cleavage does the source give for GUUAACAGUCAUAGGCCAUGGAAACUAGGAGCACCAUUUCGCUGCCAGUGAAGGAAUGAACAAAGAAAAUCUGGGCCAGGCAGGCAUCAAAAGAAAUAGUCUUGCGCUCAACCAGAAAGUCUGUAAUCAUUUUAAGGGUA [G7A A54G] here?
A: Its self-cleavage is 0.81.

Q: For GUUAAUGGUCAUAGGCCAUGGAAACUAGGAGCACCAUUUCGCUGCCAGUGAAGAAAUGAACAAAGAAAAUCUGGGCCAGGCAGGCAUCAAAAGAAAUAGUCUUGCGCUCAACCAGAAAGUCUGUAAUCAUCUUAAGGGUA [C6U U131C], which self-cleavage is on record?
A: Its self-cleavage is 0.08.

Q: With GUUAACAGUCAUAGGCCAUGGAAACUUGGAGCACCAUUUCGCUGCCAGUGAAGAAAUGAACAAAGAAAAUCUGGGCCAGGCAGGCAUCAAAAGAAAUAGUCUUGCGCUCAACCAGAAAGUCUGUAAUCAUUUUAAGGGUA [G7A A27U] as the variant, how does the self-cleavage read?
A: The self-cleavage was 0.85.

Q: With GUUAAUGGUCAUAGGCCAUGGAAACUAGGAGCACCACUUCGCUGCCAGUGAAGAAAUGAACAAAGAAAAUCUGGGCCAGGCAGGCAUCAAAAGAAAUAGUCUUGCGCUCAACCAGAAAGUCUGUAAUCAUUUUAAGGGUA [C6U U37C] as the variant, how does the self-cleavage read?
A: The self-cleavage was 1.08.

Q: For GUUAAUGGUCAUAGGCCAUGGAAACUAGGAGCACCAUUUCGCUGCCAGUGAAGAAAUGAACAAAGAAAAUCUGGGCCAGGCAGGCAUCAAAAGAAAUAGUCUUGCGCUCAACCAGAAAGUCUGUAAUCACUUUAAGGGUA [C6U U130C], which self-cleavage is on record?
A: The self-cleavage was 0.74.

Q: For GUUAAUGGUCAUAGGCCAUGGAAACUAGGAGCACCAUUUCGCUGCCAGUGAAGAAAUGAACAAAGAAAAUCUGGGCCAGGCAGGCAUCAAAAGAAAUAGUCUUGCGCUCAACCAGAAAGUCUGUAAUCAGUUUAAGGGUA [C6U U130G], which self-cleavage is on record?
A: The self-cleavage was 0.44.

Q: Which self-cleavage does the source give for GUUAAUGGUCAUAGGCCAUGGAAACUAGGAGCACCAUUUCGCUGCCAGUGAAGAAAUGAACAAAGAAAAUCUGGGCCAGGCAGGCAUCAAAAGAAAUAGUCUUGCGCUCAACCAGAAAGUCCGUAAUCAUUUUAAGGGUA [C6U U122C] here?
A: Its self-cleavage is 0.82.

Q: For GUUAACAGUCAUUGGCCAUGGAAACUAGGAGCACCAUUUCGCUGCCAGUGAAGAAAUGAACAAAGAAAAUCUGGGCCAGGCAGGCAUCAAAAGAAAUAGUCUUGCGCUCAACCAGAAAGUCUGUAAUCAUUUUAAGGGUA [G7A A13U], which self-cleavage is on record?
A: The self-cleavage was 1.19.

Q: With GUUAAUGGUCAUAGGCCAUGGAAACUAGGAGCACCAUUUCGCAGCCAGUGAAGAAAUGAACAAAGAAAAUCUGGGCCAGGCAGGCAUCAAAAGAAAUAGUCUUGCGCUCAACCAGAAAGUCUGUAAUCAUUUUAAGGGUA [C6U U43A] as the variant, how does the self-cleavage read?
A: The self-cleavage was 0.96.

Q: Which self-cleavage does the source give for GUUAAUGGUCAUAGGCCAUGGAAACUAGGAGCACCAUUUCGCUGCCAGCGAAGAAAUGAACAAAGAAAAUCUGGGCCAGGCAGGCAUCAAAAGAAAUAGUCUUGCGCUCAACCAGAAAGUCUGUAAUCAUUUUAAGGGUA [C6U U49C] here?
A: Its self-cleavage is 0.83.

Q: For GUUAACAGUCAUAGGCCAUGGAAACUAGGAGCACCAUUUCGCUGCCAGUGAAGAAAUGAACAAAGAGAAUCUGGGCCAGGCAGGCAUCAAAAGAAAUAGUCUUGCGCUCAACCAGAAAGUCUGUAAUCAUUUUAAGGGUA [G7A A67G], which self-cleavage is on record?
A: The self-cleavage was 1.61.

Q: Which self-cleavage does the source give for GUUAACAGUCAUAGGCCAUGGAAACUAGGAGCACCAUUUCGCUGCCAGUGAAGAAAUGAGCAAAGAAAAUCUGGGCCAGGCAGGCAUCAAAAGAAAUAGUCUUGCGCUCAACCAGAAAGUCUGUAAUCAUUUUAAGGGUA [G7A A60G] here?
A: Its self-cleavage is 2.29.

Q: With GUUAACAGUCAUAGGCCAUGGAAACUAGGAGCACCAUUUCGCUGCCAGUGAAGAAAUGAACAAAGAAAAUCUGGGCCAGGCAGGCAUCAAAAGAAAUAGUCUUGCGCUCAACCAGAAAGUCUGUAAUCAUUUUAAGGGUA [G7A] as the variant, how does the self-cleavage read?
A: The self-cleavage was 1.65.

Q: For GUUAAUGGUCAUAGGCCAUGGAAACUAGGAGCACCAUUUCGCUGCCAGUGAAGAAAUGAACAAAGAAAAUCUGGGCCAGGCAGGCAUCAAAAGAAAUAGUCCUGCGCUCAACCAGAAAGUCUGUAAUCAUUUUAAGGGUA [C6U U102C], which self-cleavage is on record?
A: The self-cleavage was 0.35.

Q: For GUUAAUGGUCAUAGGCCAUGGAAACUAGGAGCACCAUUUCGCUGCCAGUGAAGAAAUGAACAAAGAAAAUCUGGGCCAGGCAGGCAUCAAAAGAAAUAGUCUUGCGCCCAACCAGAAAGUCUGUAAUCAUUUUAAGGGUA [C6U U108C], which self-cleavage is on record?
A: Its self-cleavage is 0.08.

Q: Which self-cleavage does the source give for GUUAACAGUCAUAGGCCAUGGAAACUAGGAGCACCAUUUCGCUGCCAGUGAAGAAAUGAACAGAGAAAAUCUGGGCCAGGCAGGCAUCAAAAGAAAUAGUCUUGCGCUCAACCAGAAAGUCUGUAAUCAUUUUAAGGGUA [G7A A63G] here?
A: Its self-cleavage is 1.86.

Q: Which self-cleavage does the source give for GUUAACAGUCAUAGGCCAUGGAAACUAGGAGCACCAUUUCGCUGCCAGUGAAGAAAUGAACUAAGAAAAUCUGGGCCAGGCAGGCAUCAAAAGAAAUAGUCUUGCGCUCAACCAGAAAGUCUGUAAUCAUUUUAAGGGUA [G7A A62U] here?
A: Its self-cleavage is 1.38.

Q: For GUUAACAGUCAUAGGCCAUGGAAGCUAGGAGCACCAUUUCGCUGCCAGUGAAGAAAUGAACAAAGAAAAUCUGGGCCAGGCAGGCAUCAAAAGAAAUAGUCUUGCGCUCAACCAGAAAGUCUGUAAUCAUUUUAAGGGUA [G7A A24G], which self-cleavage is on record?
A: The self-cleavage was 1.4.

Q: With GUUAACAGUCAUAGGCCAUGGAGACUAGGAGCACCAUUUCGCUGCCAGUGAAGAAAUGAACAAAGAAAAUCUGGGCCAGGCAGGCAUCAAAAGAAAUAGUCUUGCGCUCAACCAGAAAGUCUGUAAUCAUUUUAAGGGUA [G7A A23G] as the variant, how does the self-cleavage read?
A: The self-cleavage was 0.87.

Q: With GUUAACAGUCAUAGGCCAUGGAAACUAGGAGCACCAUUUCGCUGCCAGUGAAGAGAUGAACAAAGAAAAUCUGGGCCAGGCAGGCAUCAAAAGAAAUAGUCUUGCGCUCAACCAGAAAGUCUGUAAUCAUUUUAAGGGUA [G7A A55G] as the variant, how does the self-cleavage read?
A: Its self-cleavage is 1.39.

Q: For GUUAAUGGUCAUAGGCCAUGGAAACUAGGAGCACCAUUUCGCUGCCAGUGAAGAAAUGAACAAAGAAAAUCUGGGCCAGGCAGGCAUCAAAAGAAAUAGUCUUGCGCUCAACCAGAAAGUCUGUAACCAUUUUAAGGGUA [C6U U127C], which self-cleavage is on record?
A: The self-cleavage was 0.57.
